Legend:
[1] = biological target: TSH receptor (TSHR), full length human, coated on tubes (human) (UniProt P16473); experiment: inhibition of 125I-TSH binding to TSHR coated tubes; 0.1 µg/mL, diluted in HBD serum pool
[2] = biological target: TSHR with Tyr206 mutated to Ala (human) (UniProt P16473); experiment: cell-based or functional assay
wild type TSHR (human) = wild type TSHR (human) (UniProt P16473); experiment: cell-based or functional assay
[3] = biological target: wild type TSHR expressed in CHO cells (human) (UniProt P16473); experiment: cell-based or functional assay
[4] = biological target: TSHR with Asp232 mutated to Ala expressed in CHO cells (human) (UniProt P16473); experiment: cell-based or functional assay
[5] = biological target: TSHR260-alkaline phosphatase (TSHR260-AP) (human) (UniProt P05187); experiment: TSHR260-AP bridge ELISA, full length TSHR on wells; 100 µg/mL, diluted in assay buffer
[6] = biological target: TSH receptor (TSHR), full length human, coated on tubes (human) (UniProt P16473); experiment: inhibition of 125I-TSH binding to TSHR coated tubes; 1 µg/mL, diluted in assay buffer
[7] = biological target: human TSH receptor (full length) coated on ELISA plate wells (human) (UniProt P16473); experiment: TSH-biotin binding inhibition ELISA, TSHR coated wells; 1 µg/mL in assay buffer + 100 µg/mL 5B3 IgG; negative control MAb
[8] = biological target: human TSHR (thyroid stimulating hormone receptor) expressed in transfected CHO cells (human) (UniProt P16473); experiment: cell-based or functional assay
[9] = biological target: full length human TSHR with mutation Arg255 Asp (human) (UniProt P16473); experiment: TSHR260-AP bridge ELISA, Arg255 Asp TSHR on wells; IgG at 0.1 µg/mL in HBD
[10] = biological target: human thyroid stimulating hormone receptor (TSHR), full length (human) (UniProt P16473); experiment: 125I-K1-70 Fab (competitor) binding to TSHR coated tubes; test sample 0.01 µg/mL in HBD serum
[11] = biological target: thyroid stimulating hormone receptor (TSHR), full length, coated on tubes (human) (UniProt P16473); experiment: inhibition of 125I-TSH binding, TSHR coated tubes; antibody 100 µg/mL in assay buffer
[12] = biological target: human thyroid stimulating hormone receptor (TSHR), full length (human) (UniProt P16473); experiment: 125I-K1-70 Fab (competitor) binding to TSHR coated tubes; test sample 0.1 µg/mL in assay buffer
[13] = biological target: thyroid stimulating hormone receptor (TSHR), full length, coated on tubes (human) (UniProt P16473); experiment: inhibition of 125I-TSH binding, TSHR coated tubes; antibody 10 µg/mL in HBD serum pool
[14] = biological target: thyroid stimulating hormone receptor (TSHR), full length, coated on tubes (human) (UniProt P16473); experiment: inhibition of 125I-TSH binding, TSHR coated tubes; antibody 100 µg/mL in HBD serum pool
[15] = biological target: full length human TSHR with mutation Arg255 Asp (human) (UniProt P16473); experiment: TSHR260-AP bridge ELISA, Arg255 Asp TSHR on wells; IgG at 1 µg/mL in HBD
[16] = biological target: human thyroid stimulating hormone receptor (TSHR), full length (human) (UniProt P16473); experiment: 125I-K1-70 Fab (competitor) binding to TSHR coated tubes; test sample 10 µg/mL in assay buffer
[17] = biological target: human thyroid stimulating hormone receptor (TSHR), full length (human) (UniProt P16473); experiment: 125I-K1-70 Fab (competitor) binding to TSHR coated tubes; test sample 100 µg/mL in assay buffer
[18] = biological target: full length wild type human TSHR (human) (UniProt P16473); experiment: TSHR260-AP bridge ELISA, wild type TSHR on wells; IgG at 0.01 µg/mL in HBD
[19] = biological target: human thyroid stimulating hormone receptor (TSHR), full length (human) (UniProt P16473); experiment: 125I-K1-70 Fab (competitor) binding to TSHR coated tubes; test sample 1 µg/mL in HBD serum
[20] = biological target: full length human TSHR with mutation Arg255 Asp (human) (UniProt P16473); experiment: TSHR260-AP bridge ELISA, Arg255 Asp TSHR on wells; IgG at 0.05 µg/mL in HBD
[21] = biological target: human thyroid stimulating hormone receptor (TSHR), full length (human) (UniProt P16473); experiment: 125I-K1-70 Fab (competitor) binding to TSHR coated tubes; test sample 1 µg/mL in assay buffer

Substance: 5B3 IgG (antibody)
- Inhibition of binding (%) [1]: 4.4%
- % inhibition of TSH stimulation, 5B3 10 µg/mL, mutated TSHR [2]: 10%
- % inhibition of TSH stimulation, 5B3 100 µg/mL, mutated TSHR [2]: 9%
- Cyclic AMP produced (pmol/mL), 5B3 10 µg/mL + TSH 3 ng/mL, mutated TSHR [2]: 74.6 pmol/mL
- Cyclic AMP produced (pmol/mL), 5B3 100 µg/mL + TSH 3 ng/mL, mutated TSHR [2]: 75.2 pmol/mL
- Mutated/wild type (%) of cyclic AMP produced; 5B3 10 µg/mL + TSH 3 ng/mL [2]: 79%
- Mutated/wild type (%) of cyclic AMP produced; 5B3 100 µg/mL + TSH 3 ng/mL [2]: 74%
- % inhibition of TSH stimulation, 5B3 100 µg/mL, wild type TSHR (wild type TSHR (human)): 0%
- Cyclic AMP produced (pmol/mL), 5B3 10 µg/mL + TSH 3 ng/mL, wild type TSHR (wild type TSHR (human)): 94.5 pmol/mL
- Cyclic AMP produced (pmol/mL), 5B3 100 µg/mL + TSH 3 ng/mL, wild type TSHR (wild type TSHR (human)): 101 pmol/mL
- % inhibition of TSH stimulation; 5B3 10 µg/mL [3]: 0%
- % inhibition of TSH stimulation; 5B3 100 µg/mL [3]: 0%
- % inhibition of TSH stimulation; 5B3 10 µg/mL [4]: 10%
- % inhibition of TSH stimulation; 5B3 100 µg/mL [4]: 6%
- Mutated/wild type (%) of cyclic AMP produced; 5B3 10 µg/mL + TSH 3 ng/mL [4]: 59%
- Mutated/wild type (%) of cyclic AMP produced; 5B3 100 µg/mL + TSH 3 ng/mL [4]: 58%
- Mean absorbance at 405 nm (absorbance at 405 nm) [5]: -0.011
- Inhibition of binding (%) [6]: -1.7%
- % inhibition of TSH-biotin binding [7]: -4.8%
- % Inhibition; 10 ng/mL K1-18 IgG + 10 µg/mL 5B3 IgG [8]: 4%
- % Inhibition; 10 ng/mL K1-18 IgG + 100 µg/mL 5B3 IgG [8]: -13%
- Cyclic AMP concentration; 10 ng/mL K1-18 IgG + 10 µg/mL 5B3 IgG [8]: 35.4 pmol/mL
- Cyclic AMP concentration; 10 ng/mL K1-18 IgG + 100 µg/mL 5B3 IgG [8]: 41.9 pmol/mL
- Cyclic AMP concentration; 100 µg/mL 5B3 IgG [8]: 1.3 pmol/mL

Substance: 9D33 IgG (antibody)
- Inhibition of binding (%) [1]: 30.5%
- Mean absorbance at 405 nm (absorbance at 405 nm) [9]: 0.053
- Inhibition of binding (%) [10]: -1.2%
- Inhibition of binding (%) [6]: 50.9%
- Inhibition of binding (%) [11]: 75.6%
- Inhibition of binding (%) [12]: 29.7%
- Inhibition of binding (%) [13]: 60.5%
- Inhibition of binding (%) [14]: 67.4%
- Mean absorbance at 405 nm (absorbance at 405 nm) [15]: 0.322
- Inhibition of binding (%) [16]: 48%
- Inhibition of binding (%) [17]: 62.7%
- Mean absorbance at 405 nm (absorbance at 405 nm) [18]: 0.011
- Inhibition of binding (%) [19]: 38.8%
- Mean absorbance at 405 nm (absorbance at 405 nm) [20]: 0.02
- Inhibition of binding (%) [21]: 43.8%
- % Inhibition; 10 ng/mL K1-18 IgG + 0.001 µg/mL 9D33 IgG [8]: 3%
- % Inhibition; 10 ng/mL K1-18 IgG + 0.01 µg/mL 9D33 IgG [8]: 15%
- % Inhibition; 10 ng/mL K1-18 IgG + 0.1 µg/mL 9D33 IgG [8]: 86%
- % Inhibition; 10 ng/mL K1-18 IgG + 1 µg/mL 9D33 IgG [8]: 95%
- % Inhibition; 10 ng/mL K1-18 IgG + 10 µg/mL 9D33 IgG [8]: 95%
- % Inhibition; 10 ng/mL K1-18 IgG + 100 µg/mL 9D33 IgG [8]: 94%
- Cyclic AMP concentration; 10 ng/mL K1-18 IgG + 0.001 µg/mL 9D33 IgG [8]: 35.8 pmol/mL
- Cyclic AMP concentration; 10 ng/mL K1-18 IgG + 0.01 µg/mL 9D33 IgG [8]: 31.3 pmol/mL
- Cyclic AMP concentration; 10 ng/mL K1-18 IgG + 0.1 µg/mL 9D33 IgG [8]: 5.3 pmol/mL
- Cyclic AMP concentration; 10 ng/mL K1-18 IgG + 1 µg/mL 9D33 IgG [8]: 1.9 pmol/mL
- Cyclic AMP concentration; 10 ng/mL K1-18 IgG + 10 µg/mL 9D33 IgG [8]: 1.9 pmol/mL
- Cyclic AMP concentration; 10 ng/mL K1-18 IgG + 100 µg/mL 9D33 IgG [8]: 2.2 pmol/mL
- Cyclic AMP concentration; 100 µg/mL 9D33 IgG [8]: 2 pmol/mL

— patent US20110300138A1 (published 2011)
